B1: Hammerhead Ribozyme (parent)
chain: ACCGGAUGUGCUUUCCGGUCUGAUGAGUCCGUGAGGACGAAACAG

Variants of: B1
Assay: self-cleavage, relative activity (ratio to wild type); higher = more cleavage; co-transcriptional
For G17U A34G, the self-cleavage was 0.604. Work on C30G C38A yielded a self-cleavage of 0.402. Variant G17U C30U has a self-cleavage of 0.755. Variant G36U A40U has a self-cleavage of 0.281. Variant U12G U14C has a self-cleavage of 0.677. Variant U12C G17U has a self-cleavage of 0.612. With U13G A44U the self-cleavage was 0.644. G36C G45A gave a self-cleavage of 0.374. Work on C2G G27A yielded a self-cleavage of 0.282. Work on G27C A37G yielded a self-cleavage of 0.677. Work on A1U G10C yielded a self-cleavage of 0.6. For G22C G33A, the self-cleavage was 0.266. Work on U9C G33A yielded a self-cleavage of 0.952. C11A C29G showed a self-cleavage of 0.809. G10U A26C gave a self-cleavage of 0.439. With U28A U32A the self-cleavage was 0.824. U21C C30A showed a self-cleavage of 0.494. In the case of U7G U32A, the self-cleavage is reported as 1.49. A6C A26U gave a self-cleavage of 0.337. U7A G22A gave a self-cleavage of 0.291. In the case of U7A C11U, the self-cleavage is reported as 1.4. Work on A6C G17A yielded a self-cleavage of 0.348. Work on U13G G17C yielded a self-cleavage of 0.572. With G10A A26C the self-cleavage was 0.666. Work on A40G G45A yielded a self-cleavage of 0.441. In the case of A6C G22A, the self-cleavage is reported as 0.29. Variant A40G A44U has a self-cleavage of 0.254. With A1U G33U the self-cleavage was 0.972. C16U G39U gave a self-cleavage of 0.378. For C15U A34U, the self-cleavage was 0.843. With G10A C38A the self-cleavage was 0.814. Variant C2U G35C has a self-cleavage of 0.647. G36U showed a self-cleavage of 0.625. With G33A A41U the self-cleavage was 0.428. With G4A G25C the self-cleavage was 0.32. In the case of A6C G31U, the self-cleavage is reported as 0.884. Variant G5A A41C has a self-cleavage of 0.325. Variant U32G A42U has a self-cleavage of 0.375. With U21A A37C the self-cleavage was 0.529. Variant C3G G36U has a self-cleavage of 0.278. In the case of A23U A44C, the self-cleavage is reported as 0.438. Work on G10U U13G yielded a self-cleavage of 0.674. U7C G18U showed a self-cleavage of 0.61. Work on U7G U28G yielded a self-cleavage of 0.502. With U32G G33A the self-cleavage was 0.843. U7A A40U gave a self-cleavage of 0.244. Variant U13C U21G has a self-cleavage of 0.864. In the case of U24C A34C, the self-cleavage is reported as 0.746. Variant U12G A26U has a self-cleavage of 0.708. In the case of G35C G39C, the self-cleavage is reported as 0.365. Work on A26C A42G yielded a self-cleavage of 0.371. A26G C38G gave a self-cleavage of 0.332. With U24A G35A the self-cleavage was 0.873. In the case of C15A G31C, the self-cleavage is reported as 0.807. In the case of G17A U28A, the self-cleavage is reported as 0.42. Variant A23G G45U has a self-cleavage of 0.297. With G36C A41C the self-cleavage was 0.364. For C15A C16A, the self-cleavage was 0.869. A26U A40C gave a self-cleavage of 0.331. Variant C2G C30U has a self-cleavage of 0.354. In the case of U12G U19A, the self-cleavage is reported as 0.299. Variant C11G U14C has a self-cleavage of 0.867. Variant U19G G27C has a self-cleavage of 0.288. In the case of G39C A42G, the self-cleavage is reported as 0.279. G10U G31A gave a self-cleavage of 0.989. G5A A26G gave a self-cleavage of 0.398. With C15A G22A the self-cleavage was 0.34. For U9A G17U, the self-cleavage was 0.565. With G8U G45C the self-cleavage was 0.768. C11G G25U gave a self-cleavage of 0.282. For G5U U28C, the self-cleavage was 0.458. Variant A1C C3G has a self-cleavage of 0.549. With G27U G33C the self-cleavage was 0.484. G22C A42G gave a self-cleavage of 0.265. For G18A G31C, the self-cleavage was 0.74. Work on G5U A42C yielded a self-cleavage of 0.327. With G10A G33U the self-cleavage was 1.01. Variant U12A C38A has a self-cleavage of 0.807. Work on U24A A41G yielded a self-cleavage of 0.473. With A1C C43A the self-cleavage was 0.295. In the case of U14C A41U, the self-cleavage is reported as 0.296. With G17U G25A the self-cleavage was 0.347. In the case of G25U G39C, the self-cleavage is reported as 0.302. Variant U9G U12A has a self-cleavage of 1.04. Variant U13C G45U has a self-cleavage of 0.965. For C15G C43A, the self-cleavage was 0.262. Variant U7G A26C has a self-cleavage of 0.265. With A26G A34U the self-cleavage was 0.353. G4A G45A gave a self-cleavage of 0.348. With C2G C29U the self-cleavage was 0.365. Variant G8A C11G has a self-cleavage of 1.18. In the case of A41G A44C, the self-cleavage is reported as 0.391. For C16A G36A, the self-cleavage was 0.523. G33C C38G showed a self-cleavage of 0.567. With G45C the self-cleavage was 0.844. Variant A1C C30G has a self-cleavage of 0.34. U7C U28C showed a self-cleavage of 0.792. With U28A C43G the self-cleavage was 0.336. For G5U A23G, the self-cleavage was 0.287. In the case of C3A G5U, the self-cleavage is reported as 0.28. For C15A U24C, the self-cleavage was 0.892. In the case of G4U C29G, the self-cleavage is reported as 0.358. With A26G G31A the self-cleavage was 0.327. With G27A G36C the self-cleavage was 0.316. Work on A1G G10U yielded a self-cleavage of 1.99. G17U C38A gave a self-cleavage of 0.465. For A6C G35A, the self-cleavage was 0.568. In the case of A6C G35C, the self-cleavage is reported as 0.391. With C16G U19C the self-cleavage was 0.344. U32C G45C showed a self-cleavage of 0.425. In the case of C11G A44G, the self-cleavage is reported as 1.8. U9G C20G gave a self-cleavage of 0.422. With C3A A6C the self-cleavage was 0.335. Variant U13A G45A has a self-cleavage of 0.883. For C20G A34G, the self-cleavage was 0.245. G18U U24C gave a self-cleavage of 0.642. Work on U19C A23U yielded a self-cleavage of 0.372. Work on U13C A41U yielded a self-cleavage of 0.362. With A34C A40U the self-cleavage was 0.419. Variant C29A G33C has a self-cleavage of 0.442. In the case of U9C U32A, the self-cleavage is reported as 0.837. Variant G18C C30A has a self-cleavage of 0.451. In the case of U13G U21G, the self-cleavage is reported as 0.537. For C29A A34G, the self-cleavage was 0.518. In the case of G5C G10A, the self-cleavage is reported as 0.638. In the case of G18A U32C, the self-cleavage is reported as 0.731. With A42U C43U the self-cleavage was 0.247. For A6U, the self-cleavage was 0.696. For C20G A40G, the self-cleavage was 0.324. In the case of G18U A23U, the self-cleavage is reported as 0.342. Work on C11A G35U yielded a self-cleavage of 0.902. For G18C A34C, the self-cleavage was 0.36. Variant G4U A23U has a self-cleavage of 0.333. In the case of A26G C30A, the self-cleavage is reported as 0.307. U12C U28C gave a self-cleavage of 1.35. C20G U24A showed a self-cleavage of 0.399. C20G U24G gave a self-cleavage of 0.353. A37C G39A gave a self-cleavage of 0.295. In the case of U12G C20A, the self-cleavage is reported as 0.332. In the case of C29U A37C, the self-cleavage is reported as 0.93. With G8A G17U the self-cleavage was 0.837. Work on C2G G22C yielded a self-cleavage of 0.296. G31U A34G gave a self-cleavage of 0.938. Work on A6G G22C yielded a self-cleavage of 0.284. With A6G G22A the self-cleavage was 0.239. C2U G31U gave a self-cleavage of 1.12. In the case of A37U G39U, the self-cleavage is reported as 0.362. Work on A6C G18C yielded a self-cleavage of 0.311. For C20G G45U, the self-cleavage was 0.316. Work on C30G G39U yielded a self-cleavage of 0.337. For C3G C20U, the self-cleavage was 0.26. For G4C A26G, the self-cleavage was 0.276. With G10U C29A the self-cleavage was 0.658. With G25U A42U the self-cleavage was 0.349. In the case of U13G C29A, the self-cleavage is reported as 0.595. For C3A A26C, the self-cleavage was 0.292. Work on A40U A44G yielded a self-cleavage of 0.649. G22A C30A showed a self-cleavage of 0.392. A6U U14G gave a self-cleavage of 0.624. In the case of A1U A40U, the self-cleavage is reported as 0.349. With G39U C43G the self-cleavage was 0.298. Variant A34C C43U has a self-cleavage of 0.287. Work on C16A G35U yielded a self-cleavage of 0.563. With G10A U21A the self-cleavage was 0.588. Work on G10U G18U yielded a self-cleavage of 0.877. In the case of A37C C43A, the self-cleavage is reported as 0.301. In the case of C16U G27U, the self-cleavage is reported as 0.551.
